Test results from patent US20060104974A1.

Assays:
[1] = molecular target: Hu-CD147IgG2 fusion protein (human); experiment: BIAcore, surface Hu rCD147-IgG 791 RU
CD147 on cells (human) = CD147 on cells (human) (UniProt P35613); experiment: two-colour FACS of activated lymphocytes, CBL against CD25
Chain of CD147 on cells (human) (P35613 other isoform, or with tags, fused parts or gaps limits assumed): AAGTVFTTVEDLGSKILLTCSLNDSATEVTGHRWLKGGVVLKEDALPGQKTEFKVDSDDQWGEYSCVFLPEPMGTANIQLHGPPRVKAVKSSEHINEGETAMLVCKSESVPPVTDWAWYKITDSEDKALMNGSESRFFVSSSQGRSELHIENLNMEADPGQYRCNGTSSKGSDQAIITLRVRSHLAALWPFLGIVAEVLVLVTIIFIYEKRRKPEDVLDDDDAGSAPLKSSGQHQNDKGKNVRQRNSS

Chain of ABX-CBL antibody (HC): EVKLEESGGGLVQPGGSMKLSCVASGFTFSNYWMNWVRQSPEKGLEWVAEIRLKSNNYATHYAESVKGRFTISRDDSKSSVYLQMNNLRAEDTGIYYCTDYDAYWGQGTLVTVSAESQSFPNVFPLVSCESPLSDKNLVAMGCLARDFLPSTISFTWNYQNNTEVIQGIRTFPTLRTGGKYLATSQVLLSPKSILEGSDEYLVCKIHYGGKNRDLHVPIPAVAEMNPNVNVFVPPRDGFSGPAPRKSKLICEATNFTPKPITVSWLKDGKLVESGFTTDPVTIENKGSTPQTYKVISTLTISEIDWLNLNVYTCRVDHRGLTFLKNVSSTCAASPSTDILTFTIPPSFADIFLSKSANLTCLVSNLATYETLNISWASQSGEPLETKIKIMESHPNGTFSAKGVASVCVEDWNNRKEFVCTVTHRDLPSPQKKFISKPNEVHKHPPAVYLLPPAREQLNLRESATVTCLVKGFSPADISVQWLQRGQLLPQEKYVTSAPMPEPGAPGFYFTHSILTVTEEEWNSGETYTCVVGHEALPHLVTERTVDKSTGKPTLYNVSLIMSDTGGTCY
Chain of ABX-CBL antibody (LC): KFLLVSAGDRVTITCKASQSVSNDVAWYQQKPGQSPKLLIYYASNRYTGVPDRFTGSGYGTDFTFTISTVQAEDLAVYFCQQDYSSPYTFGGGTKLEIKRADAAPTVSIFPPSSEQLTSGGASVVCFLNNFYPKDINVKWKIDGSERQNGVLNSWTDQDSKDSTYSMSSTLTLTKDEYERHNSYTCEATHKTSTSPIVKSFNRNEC

Ka [1]: 1.39e+09 M⁻¹
Kd [1]: 0.518 nM
koff [1]: 0.000376 s⁻¹
kon [1]: 725000 M⁻¹ s⁻¹
% of cells in quadrant CBL negative / CD25 negative (CD147 on cells (human)): 29.6%
% of cells in quadrant CBL negative / CD25 positive (CD147 on cells (human)): 1.6%
% of cells in quadrant CBL positive / CD25 negative (CD147 on cells (human)): 18.9%
% of cells in quadrant CBL positive / CD25 positive (CD147 on cells (human)): 50%
Substance: ABX-CBL antibody
